Assay results published in patent US20140274782A1, “AFFINITY REAGENTS AND METHODS FOR DETECTION, PURIFICATION, AND PROTEOMIC ANALYSIS OF METHYLATED PROTEINS” (The Board of Trustees of the Leland Stanford Junior …, priority 2013, published 2014).

T1: G9a and GLP (Homo sapiens, UniProt Q96KQ7+Q9H9B1)
T1 sequence (Q96KQ7 2-1210 limits assumed): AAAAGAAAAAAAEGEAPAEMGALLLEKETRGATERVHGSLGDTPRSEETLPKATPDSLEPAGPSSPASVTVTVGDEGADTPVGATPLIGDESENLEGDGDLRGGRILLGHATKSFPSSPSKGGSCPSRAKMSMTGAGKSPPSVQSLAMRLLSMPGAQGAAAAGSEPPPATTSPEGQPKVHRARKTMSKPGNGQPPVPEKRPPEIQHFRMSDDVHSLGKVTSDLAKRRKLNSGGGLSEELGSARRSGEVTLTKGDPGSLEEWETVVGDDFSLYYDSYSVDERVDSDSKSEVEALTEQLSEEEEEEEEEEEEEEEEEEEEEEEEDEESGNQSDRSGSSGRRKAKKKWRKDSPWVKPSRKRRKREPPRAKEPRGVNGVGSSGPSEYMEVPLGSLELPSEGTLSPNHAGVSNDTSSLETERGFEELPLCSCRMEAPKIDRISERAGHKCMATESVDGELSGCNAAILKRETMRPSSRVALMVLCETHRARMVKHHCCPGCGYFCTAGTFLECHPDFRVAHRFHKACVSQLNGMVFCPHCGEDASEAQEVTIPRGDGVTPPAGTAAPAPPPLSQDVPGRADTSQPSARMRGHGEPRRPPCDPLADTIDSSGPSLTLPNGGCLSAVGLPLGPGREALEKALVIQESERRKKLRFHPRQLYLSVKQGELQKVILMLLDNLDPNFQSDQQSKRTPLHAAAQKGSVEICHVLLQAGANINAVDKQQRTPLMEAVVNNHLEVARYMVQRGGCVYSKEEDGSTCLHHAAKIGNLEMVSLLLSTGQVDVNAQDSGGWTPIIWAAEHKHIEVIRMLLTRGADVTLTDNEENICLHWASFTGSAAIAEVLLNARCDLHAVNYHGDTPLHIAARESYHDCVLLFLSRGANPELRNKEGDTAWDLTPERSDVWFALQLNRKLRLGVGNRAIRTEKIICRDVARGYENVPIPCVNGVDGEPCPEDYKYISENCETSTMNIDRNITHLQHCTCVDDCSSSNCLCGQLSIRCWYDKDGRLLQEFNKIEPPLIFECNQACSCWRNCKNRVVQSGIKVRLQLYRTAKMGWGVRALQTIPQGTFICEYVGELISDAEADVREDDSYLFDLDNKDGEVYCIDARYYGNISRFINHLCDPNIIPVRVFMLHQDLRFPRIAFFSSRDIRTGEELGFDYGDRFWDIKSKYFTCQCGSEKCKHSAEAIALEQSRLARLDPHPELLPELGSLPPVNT
T1 sequence (Q9H9B1 2-1298 limits assumed): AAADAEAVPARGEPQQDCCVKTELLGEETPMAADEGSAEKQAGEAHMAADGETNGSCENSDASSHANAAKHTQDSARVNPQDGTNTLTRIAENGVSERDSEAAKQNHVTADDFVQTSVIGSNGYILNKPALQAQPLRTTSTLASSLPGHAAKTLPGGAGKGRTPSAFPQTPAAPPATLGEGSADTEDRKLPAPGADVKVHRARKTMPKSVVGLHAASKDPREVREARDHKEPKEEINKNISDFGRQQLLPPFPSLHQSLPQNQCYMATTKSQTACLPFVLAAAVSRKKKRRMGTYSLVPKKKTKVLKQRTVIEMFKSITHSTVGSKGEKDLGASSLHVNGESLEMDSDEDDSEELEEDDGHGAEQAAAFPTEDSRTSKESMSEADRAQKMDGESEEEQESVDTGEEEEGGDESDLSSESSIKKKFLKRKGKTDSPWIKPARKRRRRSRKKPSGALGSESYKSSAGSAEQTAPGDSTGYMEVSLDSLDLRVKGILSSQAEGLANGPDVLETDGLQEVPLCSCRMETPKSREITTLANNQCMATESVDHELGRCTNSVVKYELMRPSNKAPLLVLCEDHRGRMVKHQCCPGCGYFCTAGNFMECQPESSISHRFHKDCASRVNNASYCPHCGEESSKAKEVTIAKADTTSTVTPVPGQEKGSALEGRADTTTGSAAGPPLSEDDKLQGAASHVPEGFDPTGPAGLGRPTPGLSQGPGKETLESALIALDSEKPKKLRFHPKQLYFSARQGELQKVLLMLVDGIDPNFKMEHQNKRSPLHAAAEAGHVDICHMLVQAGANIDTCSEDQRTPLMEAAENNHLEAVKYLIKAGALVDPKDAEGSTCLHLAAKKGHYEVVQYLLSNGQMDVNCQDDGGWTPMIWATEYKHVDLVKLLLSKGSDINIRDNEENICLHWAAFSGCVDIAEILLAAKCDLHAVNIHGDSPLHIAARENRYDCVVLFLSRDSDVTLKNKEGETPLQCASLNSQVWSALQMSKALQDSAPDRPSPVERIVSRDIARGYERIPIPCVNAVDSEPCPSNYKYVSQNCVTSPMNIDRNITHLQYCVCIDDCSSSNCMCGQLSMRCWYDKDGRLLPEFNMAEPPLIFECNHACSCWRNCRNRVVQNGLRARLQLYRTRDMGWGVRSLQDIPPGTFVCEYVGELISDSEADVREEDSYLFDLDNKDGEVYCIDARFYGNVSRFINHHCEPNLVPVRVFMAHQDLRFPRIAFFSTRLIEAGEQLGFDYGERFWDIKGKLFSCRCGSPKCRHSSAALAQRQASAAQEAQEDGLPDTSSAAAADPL

B1: RBMX (protein, UniProt P38159 1-391, looked up)
RNA-binding motif protein, X …: MVEADRPGKLFIGGLNTETNEKALEAVFGKYGRIVEVLLMKDRETNKSRGFAFVTFESPADAKDAARDMNGKSLDGKAIKVEQATKPSFESGRRGPPPPPRSRGPPRGLRGGRGGSGGTRGPPSRGGHMDDGGYSMNFNMSSSRGPLPVKRGPPPRSGGPPPKRSAPSGPVRSSSGMGGRAPVSRGRDSYGGPPRREPLPSRRDVYLSPRDDGYSTKDSYSSRDYPSSRDTRDYAPPPRDYTYRDYGHSSSRDDYPSRGYSDRDGYGRDRDYSDHPSGGSYRDSYESYGNSRSAPPTRGPPPSYGGSSRYDDYSSSRDGYGGSRDSYSSSRSDLYSSGRDRVGRQERGLPPSMERGYPPPRDSYSSSSRGAPRGGGRGGSRSDRGGGRSRY
B2: PALLD (protein, UniProt Q8WX93 1-1383, looked up)
Palladin: MSGTSSHESFYDSLSDMQEESKNTDFFPGLSAFLSQEEINKSLDLARRAIADSETEDFDSEKEISQIFSTSPASLCEHPSHKETKLGEHASRRPQDNRSTPVQPLAEKQTKSISSPVSKRKPAMSPLLTRPSYIRSLRKAEKRGAKTPSTNVKPKTPHQRKGGPQSQLCDKAANLIEELTSIFKAAKPRNRSPNGESSSPDSGYLSPKNQPSALLSASASQSPMEDQGEMEREVKSPGARHCYQDNQDLAVPHNRKSHPQPHSALHFPAAPRFIQKLRSQEVAEGSRVYLECRVTGNPTPRVRWFCEGKELHNTPDIQIHCEGGDLHTLIIAEAFEDDTGRYTCLATNPSGSDTTSAEVFIEGASSTDSDSESLAFKSRAGAMPQAQKKTTSVSLTIGSSSPKTGVTTAVIQPLSVPVQQVHSPTSYLCRPDGTTTAYFPPVFTKELQNTAVAEGQVVVLECRVRGAPPLQVQWFRQGSEIQDSPDFRILQKKPRSTAEPEEICTLVIAETFPEDAGIFTCSARNDYGSATSTAQLVVTSANTENCSYESMGESNNDHFQHFPPPPPILETSSLELASKKPSEIQQVNNPELGLSRAALQMQFNAAERETNGVHPSRGVNGLINGKANSNKSLPTPAVLLSPTKEPPPLLAKPKLDPLKLQQLQNQIRLEQEAGARQPPPAPRSAPPSPPFPPPPAFPELAACTPPASPEPMSALASRSAPAMQSSGSFNYARPKQFIAAQNLGPASGHGTPASSPSSSSLPSPMSPTPRQFGRAPVPPFAQPFGAEPEAPWGSSSPSPPPPPPPVFSPTAAFPVPDVFPLPPPPPPLPSPGQASHCSSPATRFGHSQTPAAFLSALLPSQPPPAAVNALGLPKGVTPAGFPKKASRTARIASDEEIQGTKDAVIQDLERKLRFKEDLLNNGQPRLTYEERMARRLLGADSATVFNIQEPEEETANQEYKVSSCEQRLISEIEYRLERSPVDESGDEVQYGDVPVENGMAPFFEMKLKHYKIFEGMPVTFTCRVAGNPKPKIYWFKDGKQISPKSDHYTIQRDLDGTCSLHTTASTLDDDGNYTIMAANPQGRISCTGRLMVQAVNQRGRSPRSPSGHPHVRRPRSRSRDSGDENEPIQERFFRPHFLQAPGDLTVQEGKLCRMDCKVSGLPTPDLSWQLDGKPVRPDSAHKMLVRENGVHSLIIEPVTSRDAGIYTCIATNRAGQNSFSLELVVAAKEAHKPPVFIEKLQNTGVADGYPVRLECRVLGVPPPQIFWKKENESLTHSTDRVSMHQDNHGYICLLIQGATKEDAGWYTVSAKNEAGIVSCTARLDVYTQWHQQSQSTKPKKVRPSASRYAALSDQGLDIKAAFQPEANPSHLTLNTALVESEDL
B3: U2AF2 (protein, UniProt P26368 2-475, looked up)
Splicing factor U2AF 65 kDa …: SDFDEFERQLNENKQERDKENRHRKRSHSRSRSRDRKRRSRSRDRRNRDQRSASRDRRRRSKPLTRGAKEEHGGLIRSPRHEKKKKVRKYWDVPPPGFEHITPMQYKAMQAAGQIPATALLPTMTPDGLAVTPTPVPVVGSQMTRQARRLYVGNIPFGITEEAMMDFFNAQMRLGGLTQAPGNPVLAVQINQDKNFAFLEFRSVDETTQAMAFDGIIFQGQSLKIRRPHDYQPLPGMSENPSVYVPGVVSTVVPDSAHKLFIGGLPNYLNDDQVKELLTSFGPLKAFNLVKDSATGLSKGYAFCEYVDINVTDQAIAGLNGMQLGDKKLLVQRASVGAKNATLVSPPSTINQTPVTLQVPGLMSSQVQMGGHPTEVLCLMNMVLPEELLDDEEYEEIVEDVRDECSKYGLVKSIEIPRPVDGVEVPGCGKIFVEFTSVFDCQKAMQGLTGRKFANRVVVTKYCDPDSYHRRDFW

Experiments:
3×MBT domain of L3MBTL1 = assay: Triple SILAC pull-down, 3xMBT/3xMBTD355N ratio (cytoplasmic, nuclear and chromatin fractions of 293T cells); assay type: binding, human; conditions: SILAC ratio, pull-down 3xMBT vs 3xMBTD355N; for 3xMBT/D355N UNC Heavy: experiment with UNC0638 in heavy SILAC media; for 3xMBT/D355N UNC Light: experiment with UNC0638 in light SILAC media;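 for all read-outs here: proteins quantified with MaxQuant, requiring at least two unique peptides and quantification in both label directions, normalized to the mean of proteins from a digested loading control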
G9a and GLP = biological target: T1, G9a and GLP; assay: Triple SILAC pull-down after UNC0638 treatment of 293T cells, DMSO/UNC0638 ratio of protein captured by 3×MBT; assay type: cell-based; set-up: cells were treated for 24 hours with UNC0638 at 2.5 μM or DMSO vehicle control; endogenous in cells; host or cells: HEK 293T; conditions: for Relative to UNC0638 UNC Heavy / Relative to UNC0638 UNC Light: SILAC ratio DMSO/UNC0638 of protein pulled down with 3xMBT; for Relative to UNC0638 UNC Heavy: UNC0638 in heavy SILAC media; for Relative to UNC0638 UNC Light: UNC0638 in light SILAC media; for Relative to UNC0638 Average: average of UNC Light and UNC Heavy experiments;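 for all read-outs here: mass spectrometry (Q-Exactive) SILAC quantitation, DMSO/UNC0638 ratio computed after subtracting 3×MBTD355N mutant pull-down background, only proteins with at least twofold 3×MBT over mutant signal considered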

Row | Molecule | 3xMBT/D355N UNC Heavy (3×MBT domain of L3MBTL1) [log base 2] | 3xMBT/D355N UNC Light (3×MBT domain of L3MBTL1) [log base 2] | Relative to UNC0638 UNC Heavy (G9a and GLP) [log base 2] | Relative to UNC0638 UNC Light (G9a and GLP) [log base 2] | Relative to UNC0638 Average (G9a and GLP) [log base 2]
1 | B1 | 3.98 | 4.49 | 0.11 | 0.24 | 0.17
2 | B2 | 2.50 | 2.31 | 0.26 | 0.09 | 0.17
3 | B3 | 2.86 | 2.60 | 0.14 | 0.20 | 0.17
